Test results as given in publication PMC12525626, “Phosphorylation as a candidate regulatory mechanism for effector recruitment to tankyrase” (Royal Society Open Science, 2025).
Square brackets hold non-standard residues; d marks the D form. 5(6)‑carboxyfluorescein = 5(6)-carboxyfluorescein; pS = N[C@@H](COP(=O)(O)O)C(=O)O; βAla = NCCC(=O)O

B1: MDC1 TBM1 peptide, non-phosphorylated (5(6)-carboxyfluorescein-βAla-QRGEPEGGSQ-NH2) (peptide)
peptide: {5(6)‑carboxyfluorescein-βAla}-QRGEPEGGSQ-NH2
notes: also called Non-phosphorylated TBM1; source: synthetic peptide (JPT, Berlin; crude stock, greater than 70% pure by HPLC)
B2: MDC1 phospho-TBM1 peptide for co-crystallization (acetyl-943ERDTQRGEPEGG-pS-QDQ958-NH2) (peptide)
peptide: Ac-ERDTQRGEPEGG[pS]QDQ-NH2
SMILES: CC(=O)N[C@@H](CCC(=O)O)C(=O)N[C@@H](CCCNC(=N)N)C(=O)N[C@@H](CC(=O)O)C(=O)N[C@H](C(=O)N[C@@H](CCC(N)=O)C(=O)N[C@@H](CCCNC(=N)N)C(=O)NCC(=O)N[C@@H](CCC(=O)O)C(=O)N1CCC[C@H]1C(=O)N[C@@H](CCC(=O)O)C(=O)NCC(=O)NCC(=O)N[C@@H](COP(=O)(O)O)C(=O)N[C@@H](CCC(N)=O)C(=O)N[C@@H](CC(=O)O)C(=O)N[C@@H](CCC(N)=O)C(N)=O)[C@@H](C)O
notes: Mediator of DNA damage checkpoint protein 1 (MDC1), human, residues 943-958 around TBM1; also called phospho-MDC1 peptide; source: synthetic peptide (JPT, Berlin; HPLC-purified)

Legend:
[1] = biological target: T1, Human TNKS2 ARC4 (residues 488-649), wild type (human, UniProt Q9H2K2 488-649); assay: fluorescence polarisation; carboxyfluorescein-labelled MDC1 TBM1 peptides with TNKS2 ARC4 protein (no-protein wells as baseline); POLARstar Omega plate reader; n = 3 separate experiments in technical duplicate; one-site total binding model, standard errors of the fit; details: both partners purified
T1 construct: Tankyrase-2 (TNKS2), human, ankyrin repeat cluster 4, residues 488-649 of NM_025235.2, from the construct pETM30-2-TNKS2 ARC4; Monomeric by SEC-MALS; also called WT ARC4; tankyrase ankyrin repeat cluster 4; source: E. coli BL21-CodonPlus(DE3)-RIL, purified (HisTrap, TEV cleavage, second HisTrap, Superdex 75)
T1 sequence (looked up): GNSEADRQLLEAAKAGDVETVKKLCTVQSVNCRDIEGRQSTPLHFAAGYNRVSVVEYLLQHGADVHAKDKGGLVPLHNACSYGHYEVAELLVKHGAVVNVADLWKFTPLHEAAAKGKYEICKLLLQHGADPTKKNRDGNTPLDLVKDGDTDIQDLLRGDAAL

[2] = biological target: T1, Human TNKS2 ARC4 (residues 488-649), …; assay: crystal structure; TNKS2 ARC4 at 20 mg/ml with 1.5-fold molar excess of phospho-MDC1 peptide in 25 mM HEPES-NaOH pH 7.5, 100 mM NaCl, 2 mM TCEP; sitting drop, 4°C, 0.1 M Na cacodylate pH 6.5, 0.2 M Na acetate, 30% PEG 8000; molecular replacement; details: both partners purified

| Binder | Kd [1] | binding result [2] |
| --- | --- | --- |
| B1 | 4.5 µM |  |
| B2 |  | binds |
